Source: US8796209B2, “Compositions and methods related to anti-FGF agents” (The Regents of the University of California, priority 2005, dated 2014)
Where a chain is given by its changes, count along the chain named. Entries after “also recorded” stand apart in the source; their conditions may differ. Values belong to the molecule of their own block, whether it stands above or below them.

Columns and labels:
[1] = test system: Balb 3T3 cells; assay: Scratch wound healing assay; assay type: cell-based, mouse; conditions: for Wound healing: phenotype of FGF-1 mutants, Table 2; for effect on migration of Balb3T3 cells in scratch wound healing assays: with 5 μg/ml heparin, 24 h
Method: Confluent serum-starved Balb 3T3 cells were scratched. After washing with serum-free medium, cells were incubated in DMEM containing 5 μg/ml heparin and 5 ng/ml wild-type or mutant FGF-1s for 24 h at 37° C. Controls contain medium alone (none) or medium containing 10% fetal calf serum (FCS).
Balb 3T3 cells were plated into 6-well cell culture plate. Cells were allowed to grow in DMEM containing 10% fetal calf serum for overnight, and then cells were washed with serum-free medium and starved for 24 h. A scratch was made across the cell layer using a pipette tip. After washing with serum-free medium twice, DMEM containing 10 ng/ml wild type or mutant FGF-1 together with 5 μg/ml heparin were added to cells. Plates were photographed at 0, 6, 12, and 24 h.

[2] = test system: Human microvascular endothelial (HMVE) cells; assay: Tube formation by endothelial cells on Matrigel; assay type: cell-based; conditions: 24 h
Method: Digital images were taken by using a fluorescent microscope and analyzed by using ImageJ, using human microvascular endothelial (HMVE) cells added to the matrix-coated wells of 96-well plates at 2×10^4 cells/well in medium M-131 plus 0.1% hydrocortisone and 0.1% FBS for. Cells were incubated for 24 h in the presence of wt or mutant FGF. To enhance images, calcein AM was added to the medium.
Wells of 96-well FluoroNunc black plates were coated with 50 μl of matrigel basement membrane matrix (BD Bioscience) and allowed to gel at 37° C. for 30 min. Endothelial cells growing on the tissue culture plastic were trypsinized, washed, and added to the matrix-coated wells at 2×10^4 cells/well. Plating was performed in medium M-131 plus 0.1% hydrocortisone and 0.1% FBS for Human microvascular endothelial (HMVE) cells. Cells were incubated for 24 h in the presence of wt or mutant FGF. To enhance images, calcein AM (Invitrogen) was added to the medium (10 μg/ml) and incubated for 15 min at 37° C. Digital images were taken by using a fluorescent microscope and analyzed by using ImageJ. (FIGS. 9A and 9B).

[3] = test system: ERK1/2; assay: MAP kinase (ERK1/2) activation, western blot; assay type: cell-based, mouse; conditions: for ability to induce ERK1/2 activation: 5 ng/ml, 10 min, with or without 5 μg/ml heparin; for ERK1/2 activation: phenotype of FGF-1 mutants, Table 2
Method: Serum starved Balb3T3 cells were stimulated with wild-type and mutant FGF-1s (5 ng/ml) in the presence or absence of 5 μg/ml heparin for 10 min at 37° C. Cell lysates were analyzed by western blotting with anti-phospho ERK1/2 (anti phospho-ERK). Total amount of ERK1/2 in each lane was determined by blotting with anti-ERK1/2. Controls contain medium alone (none) or medium containing 10% fetal calf serum (FCS).
Balb3T3 cells were grown to confluence and serum starved in DMEM supplemented with 0.4% fetal calf serum for 24 h, and stimulated with wild type and mutant FGF-1 (5 ng/ml) in the presence or absence of 5 μg/ml heparin for 10 min at 37° C. Cells were washed twice with ice-cold PBS and lysed with the lysis buffer (20 mM Tris-HCI pH 8.0, 120 mM NaCl, 5 mM EDTA, 0.5% Triton-X100, 1 mM PMSF, 1 mM DTT, 10 mM NaF, 1 mM Na3VO4, 10 μg/ml aprotinin). Cell lysates were separated on 4-12% NuPAGE Bis-Tris Gel (invitrogen). Proteins were then transferred to PVDF membranes (Milli-pore), probed with antibodies, and bound antibodies were detected by HRP-conjugated anti-mouse IgG and chemiluminescence HRP substrate (Pierce). The antibodies used were anti-phospho-ERK1/2, anti-ERK1/2 (Cell Signaling Technology).

[4] = target: T1, integrin αvβ3 (Homo sapiens, UniProt P05106+P06756); assay: Soluble integrin binding assay (ELISA-type), soluble αvβ3 on immobilized FGF; conditions: for effect of the mutation on binding of soluble αvβ3 to FGF-1: mutant coated to plate; for αvβ3 binding: phenotype of FGF-1 mutants, Table 2
T1 construct: using the soluble αv and β3 expression constructs provided by Tim Springer; made in house; host or cells: CHO K1
Method: Wells of 96-well microtiter plates were coated with 10 μg/ml FGF-1 or FGF-2 and remaining protein binding sites were blocked with 1 mg/ml BSA. Recombinant soluble αvβ3 (50 μl/well at 5 μg/ml in Hepes-Tyrode buffer supplemented with 1 mM MnCl2) was added to wells and incubated for 1 h at room temperature. Soluble αvβ3 was incubated with 10 μg/ml 7E3 (white bar) or mouse IgG (black bar) for 10 min on ice prior to adding to the wells. BSA (circle) was used as a negative control. Data is shown as means+/−SD of triplicate experiments.
FGF-1 (10 μg/m) was heat-treated at indicated temperature for 10 min prior to immobilization. Binding of soluble αvβ3 was determined as described in FIG. 1. Data is shown as percent binding+/−SD of triplicate experiments.
Amino acid residues in the integrin-binding site or in the FGFR-binding site were mutated individually or in groups. Wild-type (diamond), R50E (open square), N33A (closed square), 4xE (circle), 3xA (triangle) were coated to a plastic plate various concentration as indicated and the binding of soluble αvβ3 was determined as described in FIG. 2. BSA (cross) was used as a negative control. […] “4xE” represents the K127E/K128E/K133E/R134E mutant. “3xA” represents the E102A/Y109A/Q110A mutant.
Binding assays were performed as previously described (Takagi et al., 2001). Native or heat-denatured FGF-1 in 0.1 M carbonate buffer, pH 9.4, were incubated in a polystyrene 96-well non-tissue culture plates surface overnight at 4° C. Unbound FGF-1 was removed, and 200 μl of 0.1% bovine serum albumin in PBS was added and incubated for 60 min at room temperature. The wells were washed with PBS and soluble integrin αvβ3 in 50 μl in Hepes-Tyrode buffer supplemented with 1 mM Mn^2+ were added to the wells and incubated at room temperature for 60 min. After non-bound soluble integrin were removed by rinsing the wells with the same buffer. Horseradish peroxidase (HRP) conjugated anti His-tag mouse IgG was added to well and incubated 60 min. Non-bound antibodies were removed by rinsing the wells with the same buffer, bound integrins were quantified by measuring the absorbance of 450 nm developed from adding the substrate (3,3′,5,5′-tetramethylbenzidine) of HRP unbound protein was aspirated, and the wells were washed with PBS three times.

T1 sequence (P06756 31-992 limits assumed): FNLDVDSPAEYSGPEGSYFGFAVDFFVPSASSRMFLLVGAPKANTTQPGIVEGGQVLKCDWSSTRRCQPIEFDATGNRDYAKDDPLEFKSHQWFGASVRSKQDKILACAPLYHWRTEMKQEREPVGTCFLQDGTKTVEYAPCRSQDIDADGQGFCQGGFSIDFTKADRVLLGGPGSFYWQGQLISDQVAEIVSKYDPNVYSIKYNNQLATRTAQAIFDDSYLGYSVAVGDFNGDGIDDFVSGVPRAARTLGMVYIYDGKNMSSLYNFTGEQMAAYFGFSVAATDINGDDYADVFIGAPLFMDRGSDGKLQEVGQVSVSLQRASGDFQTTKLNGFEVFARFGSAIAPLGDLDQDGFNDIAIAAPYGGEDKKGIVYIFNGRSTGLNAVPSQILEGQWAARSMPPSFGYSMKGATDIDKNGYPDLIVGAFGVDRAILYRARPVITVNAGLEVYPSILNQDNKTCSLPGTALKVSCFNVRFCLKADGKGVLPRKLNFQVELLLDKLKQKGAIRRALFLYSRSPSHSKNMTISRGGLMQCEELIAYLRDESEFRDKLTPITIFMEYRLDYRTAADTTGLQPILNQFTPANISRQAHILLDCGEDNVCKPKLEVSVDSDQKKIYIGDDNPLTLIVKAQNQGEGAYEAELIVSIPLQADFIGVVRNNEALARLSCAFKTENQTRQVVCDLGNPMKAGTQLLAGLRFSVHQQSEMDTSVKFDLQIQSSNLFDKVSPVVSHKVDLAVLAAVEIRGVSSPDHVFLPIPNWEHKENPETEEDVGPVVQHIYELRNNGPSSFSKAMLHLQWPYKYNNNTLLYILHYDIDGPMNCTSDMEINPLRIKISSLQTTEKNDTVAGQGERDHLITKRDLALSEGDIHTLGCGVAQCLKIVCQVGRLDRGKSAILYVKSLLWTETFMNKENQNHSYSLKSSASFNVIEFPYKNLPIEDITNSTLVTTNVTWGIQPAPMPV
T1 sequence (P05106 27-718 limits assumed): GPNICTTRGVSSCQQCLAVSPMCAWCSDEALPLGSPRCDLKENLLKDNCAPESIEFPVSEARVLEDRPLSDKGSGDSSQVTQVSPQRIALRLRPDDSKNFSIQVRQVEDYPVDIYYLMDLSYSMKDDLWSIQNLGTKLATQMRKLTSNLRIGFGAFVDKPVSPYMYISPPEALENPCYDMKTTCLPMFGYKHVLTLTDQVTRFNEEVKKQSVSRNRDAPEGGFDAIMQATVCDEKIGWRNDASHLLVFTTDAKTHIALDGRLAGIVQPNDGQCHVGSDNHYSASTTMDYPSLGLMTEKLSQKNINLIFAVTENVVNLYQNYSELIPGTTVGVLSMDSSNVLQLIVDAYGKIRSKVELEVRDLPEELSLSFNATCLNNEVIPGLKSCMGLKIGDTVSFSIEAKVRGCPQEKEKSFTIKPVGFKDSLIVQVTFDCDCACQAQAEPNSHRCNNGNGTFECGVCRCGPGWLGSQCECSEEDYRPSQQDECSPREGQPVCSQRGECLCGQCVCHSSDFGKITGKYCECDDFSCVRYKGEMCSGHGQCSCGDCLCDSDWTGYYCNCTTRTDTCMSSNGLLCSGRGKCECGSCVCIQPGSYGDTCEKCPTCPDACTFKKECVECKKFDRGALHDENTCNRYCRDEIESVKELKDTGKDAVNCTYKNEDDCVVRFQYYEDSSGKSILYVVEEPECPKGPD

αvβ3 binding [4]: Low
Molecule: R50E: FGF-1 mutant with the Arg-50 to Glu (R50E) mutation
Wound healing [1]: Low
effect on migration of Balb3T3 cells in scratch wound healing assays [1]: effectively blocked
tube formation by endothelial cells on matrigel [2]: block tube formation
ability to induce ERK1/2 activation [3]: much less ability
ERK1/2 activation [3]: Low
effect of the mutation on binding of soluble αvβ3 to FGF-1 [4]: blocked the binding; also recorded: effectively blocked

binding of soluble αvβ3 to the immobilized protein ([4]; coated at 10 μg/ml, soluble αvβ3 5 μg/ml, 1 mM MnCl2): bound
binding of soluble αvβ3 to heat-denatured protein ([4]; heat-denatured, heat-treated 10 min before immobilization): did not bind
αvβ3 binding [4]: Normal
Molecule: Wild type: human FGF-1 (acidic FGF), wild type, expressed in E. coli
Wound healing [1]: Normal
tube formation by endothelial cells on matrigel [2]: enhanced
ERK1/2 activation [3]: Normal

effect of the mutation on binding of soluble αvβ3 to FGF-1 [4]: effectively blocked
αvβ3 binding [4]: Low
B1: 4xE: FGF-1 mutant, Lys127/Lys128/Lys133/Arg134 simultaneously to Glu (protein)
chain: FNLPPGNYKKPKLLYCSNGGHFLRILPDGTVDGTRDRSDQHIQLQLSAESVGEVYIKSTETGQYLAMDTDGLLYGSQTPNEECLFLERLEENHYNTYISKKHAEKNWFVGLEENGSCEEGPRTHYGQKAILFLPLPVSSD
Wound healing [1]: Low
effect on migration of Balb3T3 cells in scratch wound healing assays [1]: effectively blocked
ability to induce ERK1/2 activation [3]: did not induce ERK1/2 activation at all
ERK1/2 activation [3]: Low

effect of the mutation on binding of soluble αvβ3 to FGF-1 [4]: did not affect
αvβ3 binding [4]: Normal
B2: 3xA: FGF-1 mutant, three residues in the FGFR binding site (Glu102/Tyr109/Asn110) to Ala (protein)
chain: B1 chain with E87A, Y94A, N95A, E112K, E113K, E118K, E119R
Wound healing [1]: Low
effect on migration of Balb3T3 cells in scratch wound healing assays [1]: effectively blocked
ability to induce ERK1/2 activation [3]: did not show ERK1/2 activation
ERK1/2 activation [3]: Low
